The results in this text go back to PMC6946597.

The target in experiment [1] is human COA6 isoform 3 (human). Kind of experiment: SEC.
Experiment [2] has as its target human COA6 isoform 3 (human). Kind of experiment: SEC. This is another data set of the same source. In general terms: Size exclusion chromatography separates by hydrodynamic size, large species first.

Like-named read-outs stand apart in the source and are kept apart here.

Usually stoichiometry N stands for the number of molecules, sites or subunits per partner or assembly. As to human COA6 isoform 3 (natural protein), the stoichiometry N in experiment [1] and in experiment [2] was 2 throughout.
